Residue numbers refer to the chain shown, from its start.
Tests used:
Experiment in all cases: phage ELISA, apparent Kd; PBS, 50 uM ZnCl2, 20 C
Conditions in all cases: protein: virion; tags: phage fd pIII fusion (Fd-Tet-SN), Zif268 framework; label: 5' biotin
zfHAE(M) [1] = target: zfHAE(M)
Description: (§1) Binding sites are synthesised as described above, including biotinylated sites where 5-meC (M) is replaced by a C or T (with appropriate bases in the complementary strand). Two-fold dilutions of DNA are added to separate wells of a streptavidin-coated microtitre plate (Boehringer Mannheim) in 50 µl PBS containing 50 µM ZnCl_2 (PBS/Zn). Phage solution (bacterial culture supernatant diluted 1:10 in PBS/Zn containing 2% (w/v) fat-free dried milk (Marvel), 1% (v/v) Tween and 20 µg/ml sonicated salmon sperm DNA) are applied to each well (50 µl/well). Binding is allowed to proceed for one hour at 20° C. Unbound phage are removed by washing 6 times with PBS/Zn containing 1% (v/v) Tween, then 3 times with PBS/Zn. Bound phage are detected by ELISA using horseradish peroxidase-conjugated anti-M13 IgG (Pharmacia Biotech) and the colourimetric signal quantitated using SOFTMAX 2.32 (Molecular Devices).
(§2) Zinc finger phage binding for each of the above clones is titrated against different amounts of methylated and unmethylated DNA oligos to derive values of the apparent dissociation constants (K_ds) for either DNA binding site (see FIGS. 4 and 5). The apparent Kd of each clone for the optimally bound DNA site(s) is in the nanomolar range, similar to that of wild-type Zif268 DNA-binding domain for its preferred target site using this assay. Clones zfHAE(M) (Table 1 F1: SEQ ID NO.:20; F2: SEQ ID NO.:25; F3: SEQ ID NO.:30) and zfHHA(M) (Table 1 F1: SEQ ID NO.:21; F2: SEQ ID NO.:26; F3: SEQ ID NO.:31) preferentially bind their respective DNA target sites when 5-meC is incorporated into the correct nucleotide positions, and discriminated against the unmethylated DNA sites by factors of approximately 20-fold and 5-fold, respectively.

zfHAE(Y) = target: zfHAE(Y)
Description: as §1, §2

zfHAE(M) [2] = target: zfHAE(M); remark: listed apart in the source
Description: as §1

zfHHA(M) = target: zfHHA(M)
Description: as §1, §2

zfHHA(Y) = target: zfHHA(Y)
Description: as §1, §2

B1: HAE(M) G-GGMC-GGCG (dsDNA)
DNA 1: TATAGTGGGCCGGCGTGTCACAGTCAGTCCACACACGTC
DNA 2: GACGTGTGTGGACTGACTGTGACACGCCGGCCCACTATA
modifications: 5mC at M (G-GGMC-GGCG), both strands [10 (5mC)]
Kd (zfHAE(M) [1]): 2 nM | Kd (zfHAE(Y)): 6.3 nM

B2: HAE(T) G-GGTC-GGCG (dsDNA)
DNA 1: B1 DNA 1 with C10T
DNA 2: B1 DNA 2 with G30A
Kd (zfHAE(M) [2]): 27 nM

B3: HHA(M) G-GMGC-GGCG (dsDNA)
DNA 1: B1 DNA 1 with G9C, C10G
DNA 2: B1 DNA 2 with G30C, C31G
modifications: 5mC at M (G-GMGC-GGCG), both strands [5mC at 9 (top strand); bottom-strand 5mC opposite G10]
Kd (zfHHA(M)): 14 nM | Kd (zfHHA(Y)): 14 nM

— US6977154, “Nucleic acid binding proteins” (Gendaq Limited)
